Measured values taken from patent US20050288488.

Key:
[1] = biological target: AhR-ARNT heterodimer (human AhR, human ARNT) (Homo sapiens) (UniProt P35869+P27540); test: cell_activity; settings: yeast A303 lacZ reporter, average induction over background with bNF or aNF; ligand EC50 7.9e-8 M for bNF
[2] = tested on: LexA(1-202)-AhR N-delta-166 chimera (Escherichia coli? / Mus musculus?); test: cell_activity; settings: yeast GRS4 lacZ reporter, average induction over background with bNF or aNF; ligand EC50 6.1e-8 M for bNF

Sequence of AhR-ARNT heterodimer (human AhR, human ARNT) (Homo sapiens) (P35869 whole entry, chain 1 of 2): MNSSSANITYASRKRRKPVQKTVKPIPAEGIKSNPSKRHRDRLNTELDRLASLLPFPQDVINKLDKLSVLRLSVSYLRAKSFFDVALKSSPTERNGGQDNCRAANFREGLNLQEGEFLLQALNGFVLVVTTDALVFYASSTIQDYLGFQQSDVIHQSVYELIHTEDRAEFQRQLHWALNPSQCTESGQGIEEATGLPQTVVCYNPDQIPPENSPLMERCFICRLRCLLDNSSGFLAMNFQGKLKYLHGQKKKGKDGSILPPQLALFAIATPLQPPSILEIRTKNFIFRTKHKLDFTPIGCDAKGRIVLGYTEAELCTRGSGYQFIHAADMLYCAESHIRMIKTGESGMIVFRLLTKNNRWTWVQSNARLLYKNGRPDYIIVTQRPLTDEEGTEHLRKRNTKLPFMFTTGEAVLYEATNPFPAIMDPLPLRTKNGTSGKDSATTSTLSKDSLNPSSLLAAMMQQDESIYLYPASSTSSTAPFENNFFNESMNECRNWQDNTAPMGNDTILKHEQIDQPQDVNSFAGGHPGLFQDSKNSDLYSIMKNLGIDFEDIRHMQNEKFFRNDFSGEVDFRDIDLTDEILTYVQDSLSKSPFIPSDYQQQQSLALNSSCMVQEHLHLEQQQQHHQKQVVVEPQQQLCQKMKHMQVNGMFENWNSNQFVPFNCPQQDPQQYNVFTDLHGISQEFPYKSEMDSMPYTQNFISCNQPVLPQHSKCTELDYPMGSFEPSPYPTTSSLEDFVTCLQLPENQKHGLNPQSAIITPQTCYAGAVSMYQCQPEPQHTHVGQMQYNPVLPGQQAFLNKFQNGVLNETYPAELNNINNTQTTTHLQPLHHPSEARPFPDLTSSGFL
Sequence of AhR-ARNT heterodimer (human AhR, human ARNT) (Homo sapiens) (P27540 whole entry, chain 2 of 2): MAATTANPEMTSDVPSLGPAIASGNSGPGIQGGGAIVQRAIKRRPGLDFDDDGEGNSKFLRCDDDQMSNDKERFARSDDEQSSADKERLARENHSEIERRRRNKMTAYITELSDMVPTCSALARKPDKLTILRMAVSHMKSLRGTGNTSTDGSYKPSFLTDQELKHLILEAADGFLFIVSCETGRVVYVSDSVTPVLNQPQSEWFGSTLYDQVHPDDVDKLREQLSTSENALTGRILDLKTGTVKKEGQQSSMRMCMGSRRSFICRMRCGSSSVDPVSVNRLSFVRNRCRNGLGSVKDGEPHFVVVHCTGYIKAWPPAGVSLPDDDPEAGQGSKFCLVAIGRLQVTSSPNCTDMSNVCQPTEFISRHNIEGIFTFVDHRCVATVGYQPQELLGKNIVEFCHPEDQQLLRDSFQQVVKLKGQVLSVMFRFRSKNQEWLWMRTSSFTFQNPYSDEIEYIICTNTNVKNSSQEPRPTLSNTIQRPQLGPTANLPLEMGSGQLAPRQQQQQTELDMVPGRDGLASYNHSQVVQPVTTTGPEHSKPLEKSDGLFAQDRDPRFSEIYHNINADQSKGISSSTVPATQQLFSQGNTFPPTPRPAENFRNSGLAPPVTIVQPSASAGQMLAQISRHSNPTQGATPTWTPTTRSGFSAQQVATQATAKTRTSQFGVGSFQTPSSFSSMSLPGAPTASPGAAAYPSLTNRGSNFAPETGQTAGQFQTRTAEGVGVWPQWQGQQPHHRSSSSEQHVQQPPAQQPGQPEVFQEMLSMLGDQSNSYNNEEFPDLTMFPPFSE

Row | Substance | activity [1] | activity [2]
1 | DRE2-DRE3 reporter (pDRE23-Z) | 12 fold | 
2 | eight LexA operator reporter (pSH18-34) |  | 90 fold
